Consider 13 molecules from paper PMC11098746 (2024).

Sequences and labels used below:
B1: 39 (protein)
chain: GTIEIKLSEFVGDSVNLAAKLHGFFLELNVNIAFTVICSNGMKALNGICIPCPLGSYNNINEYIKNNNIYECTLCHNNAATKNEGSTSISQCLCLPGYELNNNDLCVPCKRGTWKTKLSNSPCIFHCYPNSYSLVQGSRSEEESKCKCKRGFYFVSKDSINFCDNCNIGYFCPGGYKIGEKKCPKNTANIAQNNFAISSCKCDVGFEPFDSSNLNAYNFKNDPIFNDYKDFLDDVKSSQICVPCKEGFYKNTVSEEKCKRCSDNVYTDGLQSTSISNCKKCEKGYYLQSEDSCIICPDNHYCPGAYINDPKYAIYENQKIPCGDKSLTIPPNNLNVAHLNCLCKKGFEFIKTDDNEFDCLEVPKNYYKSHLGNKEKEPCPENSVTLYTQTKSKVKCLCMPGYYWDLKEFKCIKCPKGHYCPGGYLKNCFNNQNLHSCKPQKKKCPLKNSATQTKESFSQSSCLCDKGYTINKEELRECIPCPINTYKDVISNAECTKCLTPYTTDGQIGSTKEEDCTCSGGFFFLNHCLPCSDKNTYCKGGKMIVNNKNKAIHYGPSKCPPNTAVSFETERPYNKGFCVCQKGFKHVYTTSDFTKICAPCERGFFKTIIGDFSCESKCKPNSASFVGTIHETHCFCLENYYFKNGICLNCPDGAYCEGGFQKETLLYMKKNEYYLDTSKIKHIMPVPKENYALYKLKTNIYNTDWFIVECPIKEACLYNEKCHESMTNFLCGECKKGYTNNFAKLNLCIKCSGHIMN
modifications: bait human Fc-tagged dimer
B2: 81 (protein)
chain: EFVKGSYESKGYPLIHLMNNNEYTGSANNFIKNNLINLLYIYKDVKFDEEKTLGIDSFLDIEDDTKIERLIKEKMLYINKYINSRQMIKYSGFIYLYEIIEKKNFYFLLHFLMTNNNNGLIIILPEDMYINVDEYYRINKINKLNDQNKKNKVVSQDLLEKRIMFVQSLILNMKLQQSIYFIKNNKDIEKIYENYQSKFAYFDLTRNVAISPISKIQNVYKMNSKSLYYFLNKNNNIHINTIFNKQQDNQAFLLTKQKTIIICADFNVFNIFSDLPSNTAFTNSNLITIQNLIKLFYDVYNKEQVNYNILFFFTNYYYGIQDFLNSINVIFKENIEFVICLDNLNNADFYIYESNKAQPQNVQAFYRILNNIVKGSIKKNVQMVNEKIKIHSKHLPSLHEYFVLNKINSFSLSSSKKNNNMIFLNKFPMLQPKLNIQNVKNNIAIIFKSLYLYMTQKKTDQKENTQQEQSIEKNEKEKSMLTYINKNMASNDDMNTIDYNLNKYNKFFIYKEDTLKLFNYFKTIINSNIADTNFLIKDYKLTTDKKQKFFYQKYAHVTFSMAISYVFH
modifications: bait human Fc-tagged dimer
B3: 11 (protein)
chain: LKVPIENAPFVFNKKENDIKYFLDKETPDDFLSNNAYSLDITLENFPNPFFHPSLCNRYGFKFSYICDPNKILSRNIADQIEEILNYQRRNSKHFCVDKEVPYVLGVALINKLPYGISADTFASQIFEYWKLSNKDCNDGVLLFFVKEDTHFILKWKKGAQSIINFRTATSMNKAFNQYLRKYSLEYSILSAVKLTSQYLTEEIIPPTQTAQK
modifications: bait human Fc-tagged dimer
B4: 62 (protein)
chain: EFKRKQKVEINSLQTNKNNDNIREEKIKGDVESQPDVDGDTCVIFSSSEGNSRNCWCPRGYILCSEEDVLDVQGKLNEIKNKHERSLVTPLWMKRLCDNSNDVGFKSMSVVIDYELAVLCKDGSNKDYADFEIIGASGYITGEEMIEEQKRNPWYVPRKCTVNNFYLCRKVENDNVNCAYTPWSDWSACKNNAQKRYRKVRRSNQNNENFCLWNDKIVPRNIMEQTRSC
modifications: bait human Fc-tagged dimer
B5: 63 (protein)
chain: FRGNNGHNSASSLYNGAQFIEQLNNAFTSAFLESQSMNKIGDDLAETISNELVSVLQKNSPTFLESSFDIKSEVKKHAKSMLKELIKVGLPSFENLVAENVKPPKVDPATYGIIVPVLTSLFNKVETAVGAKVSDEIWNYNSPDVSESEESLSDDFFD
modifications: bait human Fc-tagged dimer
B6: 54 (protein)
chain: DQLDMGSVHNNNAVVGNSASHSPSSSSSSPSSSSSSSSSSPSASSSSSSSSPASSSSSPSSTSDDSKNAALDKIDEELQKKKKNEKL
modifications: bait human Fc-tagged dimer
B7: 69 (protein)
chain: IYYCNDNILENANNDDSTKDINNINKNSANKAKSEKTSNYNNDQYNIDDAYNEDEENDEEEGDDDENDHFEVPINCAGGNCFDSMDDINKIIDNKKKKMKYRRRRGKAIQIIKPNVNHAELIIIEENLEIFKRIDKPIAIVSVLGDMHTGKSFLLNLLNEHVIPDINKANKYIENGFKVGNDITASTYGIWIWSEPIRINVKKLKKIYEYINENFANFIKSYEYEKDEYNEEIIDLLNLYKTDDWISNVEELNLADTDEVNLILMDTQGLNSPNVNKRYDEILYALTNLISTDIIFLTMKMINNKDLEFIENIAKDANLFMLRAYTRSSGSTFSIKKNNFHKILDTLNNNLENNALILESIASKNLMWVVHDFSQRLDVRKGKLWLDILLNSDRRDLDIKYWKKIISNKAKDKHDAYTTKKQKIAYLTYNENSASGLLPNNNNNNNNANDASSNYKLNILYKNIDCVLLRNMYHNKEFDFTKANINDLNEEYKNDVLLLRYKIYLRALLFPKKMYSDVQINNIINKIRKEQKLREEQEKNKDNKKNDANNQANDLNSNKDETSGSQVTNRFMSGHDVYDFITFLVKSANQNLFTNVNQFFKHFKINRAEISRNDLIFLYKKYLLQFMENEDVEFISNLNDENDDLFLQKEGNNAAVNHDENSDADSLFNDHDENMQLKEHNIKDGEDNTHQKKDSYKLPPLLNEIKKYEELIREQILNIWYKYTESDFHDEEEKELIKDIENNLYERLDQIKIEMLELGEMNIRKFCKIACEDALQIVVEDIKMKSDQYPIKQKDLTTFFESVSYNLIKYLEKKLSKNSDKLDLIYYKDNICSPLINNAFQEFYFLKKKNIALNENRLKSYFSNAVEKGKEVFEVLAENTENIAEYFKNKNMFYTVLDKWTSEAINTYTLTLSDFAKEEKEINDEYLNVLNNDIKLLKQKAMEKWHNHCRDKTSALYNMHKSNLKKNFLENFNFPLDELVLQDIFLNLKGQEELKYMDIYCANEDSWNSEYKNFLKLTDEIFQFIKDENLKAIQITCQQPLDELKNGIKGEIHKYYLWSSLKSTLYNRALIVLSSNIENIYIKNQRENKIQSNLDEKYNNKNKNYKRISKDLMSKVINRWLNNDIYNVYYP
modifications: bait human Fc-tagged dimer
B8: 48 (protein)
chain: GCIKLKTSYKHEPILLLKNDERIISLNKIIPYLTEEVFISKDNIMTKINVENNICIELIKKHEILNTPIEHFFHFTNREYTIDLRNNDNIYNYAKRILNNKLDFELCNKILSFTIPINYNICSFPSYHNYFLYINYLKDVKIELIISALEKAKFLFLKIPNTFNLNTAHANFNDNDYIIEKGILENDLIKIDISKIIHRYICKKYYLYKSDEQINDDDLRQINNNNANNDISDKEIKMVLMTSHTLSDIIIFPSIIQNVQALKHYKNIKNVVKLKKKIKKRYTEWENWAPCYNVCNNNFAYKCRYYKCTTENQEFCDQNFHMNFAECPFTPCEDAIKKENEKKEIEKDKNKAIIINHENNRDQEGPIDDETMLRYRKNKKISFFMWIINNKK
modifications: bait human Fc-tagged dimer
B9: 82 (protein)
chain: GLCKPCTLENHYCEGGLESDITFNNKLIKGKFHTLPKKCPRGLGIPNIIKERNSINNCLCIHGKVQRTTENKNVECFPCPPNTFKENEYDNSCSGACPPFSTTFVGSSYENQCFCKNNYYLVSTDDENDANGNSINNNKNIYNNNNIYNNNNNNNNNNNNNFNNKADVKKKSCKICPIGAICNRGFNIYIYLKLLNDRSYNNINVIDHETPFPKYGYYAVYREKTNPAKSWDTLDDSAILNYVYPYHKLLLFIQKNIQKGNYFFLEKGNKFFLNDDFVEKMNEKSKYEEENANKFVTKSEIIHNVNTNNLKGKHNTLNNNNNNNNINKASSFLNQNNYNNDIIQLSSYENNPFKNLASTSEVSSNNNVISFIQNNDKTNNAANDNNIENLVDIFNKYVQEAKELQIQNRKFERIPDIHPCTIPNRCLGTLINLCSDGSTGYQCNNCAKNYDMSYFKSKCKKCQNLFYE
modifications: bait human Fc-tagged dimer
B10: 29 (protein)
chain: QNYWEHPYQNSDVYRPINEHREHPKEYEYPLHQEHTYQQEDSGEDENTLQHAYPIDHEGAEPAPQEQNLFSSIEIVERSNYMGNPWTEYMAKYDIEEVHGSGIRVDLGEDAEVAGTQYRLPSGKCPVFGKGIIIENSNTAFLTPVATGNQYLKDGGFAFPPTEPLMSPMTLDEMRHFYKDNKYVKNLDELTLCSRHAGNMIPDNDKNSNYKYPAVYDDKDKKCHILYIAAQENNGPRYCNKDESKRNSMFCFRPAKDISFQNYAYLSKNVVDNWEKVCPRKNLQNAKFGLWVDGNCEDIPHVNEFPAIDLFECNKLVFELSASDQPKQYEQHLTDYEKIKEGFKNKNAAMIKSAFLPTGAFKADRYKSHGKGYNWGNYNTETQKCEIFNVKPTCLINNAAYIATTALSHPIEVENNFPCSLYKDEIMKEIERESKRIKLNDNDDEGNKKIIAPRIFISDDKDSLKCPCDPEMVSNSACRFFVCKCVERRAEVTSNNEVVVKEEYKDEYADIPEHKPT
modifications: bait human Fc-tagged dimer
B11: 14 (protein)
chain: KNINLNDEGKKKQSGIINENEDGKNNKANNNKKVQHNKINRKGNNAVTKKTDEHKNDGDAENKKNGEHKNDGDGKNKKNGEHKNDGDGKNKKMDEHLYDIDGENKKNGEHLYDVDGENKKNGEHLYDIDGENKKNGEHLYDIDGENKKTDEHLYDVDGGKNNILEYNNIDQHNEFPESLENDNSYDKLFDDVELRDIIHNEKFFENLKNVNNNDVHNFLLVDKEMERRKEEEKKKSRKLEEDEEDDEDEEEDNDEKWKEENKNNAASSSSSSSNNFNKNYDIYDNRDLYNYDNLVDITQEEHINVPNINDEINEGRKHDKEDFLIFEKRLNEAEDRNDASDGDNKMEDLINNHFDDSGDNGAYENIQVKKELYNKNEKIIKGRDNNLNDGDIHMNKNNAANKLNNNNNNNNNDNNMNSEMKYKTFKEEYEEQILSKP
modifications: bait human Fc-tagged dimer
B12: 73 (protein)
chain: NNIKLNDKENINFESYFNKRTNEENVLNKNVAKEMGDTFVAHKAIELNINHHHVNNDKEFNNNNNNKHQPYYHNEHDKKFSESLKAHMDHLKILNNDLKQHIDKKERNEIYENNDLKKYIIKEIQNNKYLNKEKKSSEDIQILEEHSKKLQKEIHEWLESVNNIEEKSNILKNIKSQLLNNIASLNHALSEEIKNINDIKELQKQQNDLFSENWLYFLPSSSDYLLNEKKKNLYDNQDNSMKDDINNNDKYNIFNYLQNVQDKDNQYEVMKQDNNNIHSGSS
modifications: bait human Fc-tagged dimer
B13: 64 (protein)
chain: RMNVVSHNSMKKVGEEGKDEKIISCVVEYVIKGDLSIDDGDFCDSNSICSNNPGLCDNGQVVVPGDYCSNYYDITLVVEESSFVQKDYWLKGTIPFLESMVFNSNVAKDKAHMSVVLFAGKQRVVVPFTDESSQDKNMLLEKINSIDEGIATSSDTLYVNALKYAIENVIFGDGTRKDAPKVAVLFYYGFDYGANKNMIPDVVQTYKEQNVKLIIVGIALGIRDNAYLLADCSIGDENCVNVVFKPWDFVIPAAADVNQKICDKNKA
modifications: bait human Fc-tagged dimer

The assay deals with FGFR4 ectodomain (Homo sapiens, UniProt P22455). The assay can be described thus: AVEXIS normalised luminescence.
The molecule B1 yielded a binding score of 0.948.
In the case of B2 it was 0.817.
In the case of B3 it was 1.58; in that of B4, 1.47.
As to B5, the binding score worked out at 1.23.
In the case of B6 it was 0.958; in that of B7, 0.719.
Turning to B8, the binding score is 0.752.
Regarding B9, the binding score amounted to 1.25.
With B10, the binding score was 1.43.
To B11 belongs 0.821; to B12, 198.
To B13 belongs 0.876.
